From US12227551B2, “Membrane bound IL12 compositions and methods for tunable regulation” (Obsidian Therapeutics, Inc., priority 2018, dated 2025)

Columns and labels:
[1] = system: phospho-STAT4 in GFP+ T cells; test: Transactivation: phospho-STAT4 in GFP+ CAR-negative T cells after 1 hour co-culture with CAR-mbIL12 T cells, flow cytometry (Example 6; Table 20); format: cell-based, human
Method: (§1) Membrane bound IL12 (mbIL12) was expressed in tandem with a CD19-CAR and tested in primary human T cells. On day 0, primary human T cells were stimulated with Dynabeads (T-expander CD3/CD28) at a 3:1 bead:cell ratio in media containing 10% fetal bovine serum (FBS). The next day, lentivirus with mbIL12 in tandem with a CD19-CAR construct was added in the presence of reduced serum (5% FBS). After 7 days of T cell expansion, increasing numbers of CAR+ T cells were cocultured with 10,000 GFP+, CAR-negative T cells. At the end of 1 hour of co-culture, the phospho-STAT4 levels within the GFP+ T cells were quantitated by flow cytometry using reagents and methods from BD. To determine the relative amount of IL12 activity that had accumulated in the T cell supernatants during the hour-long co-culture, cell supernatants from the co-culture were transferred to a new plate of GFP+ T cells and incubated for 1 hour. Phospho-STAT4 levels were measured in the GFP+ T cells incubated with the supernatants from the original co-culture. The transactivation ([…] geometric mean fluorescence (MFI) on GFP+ cells in co-culture) and the bystander effect (pSTAT4 geometric MFI on GFP+ T cells in 1 hour supernatants) for a CAR-IL12+:GFP+ ratio of 64 are shown in Table 20.
(§2) The transactivation (pSTAT4 geometric mean fluorescence (MFI) on GFP+ cells in co-culture) and the bystander effect (pSTAT4 geometric MFI on GFP+ T cells in 1 hour supernatants) for the constructs at different ratios are summarized below. For OT-001407, when (a) the CAR-IL12+:GFP+ ratio was 32, the transactivation was 1711 and the bystander effect was −1680, (b) the CAR-IL12+:GFP+ ratio was 16, the transactivation was 1768 and the bystander effect was −1632, (c) the CAR-IL12+:GFP+ ratio was 8, the transactivation was 1433 and the bystander effect was −1603, (d) the CAR-IL12+:GFP+ ratio was 4, the transactivation was 1195 and the bystander effect was −1860, and (e) the CAR-IL12+:GFP+ ratio was 2, the transactivation was 1101 and the bystander effect was −1800. For OT-001356, when (a) the CAR-IL12+:GFP+ ratio was 73.9, the transactivation was 6452 and the bystander effect was −2617, (b) the CAR-IL12+:GFP+ ratio was 37, the transactivation was 6935 and the bystander effect was −1404, (c) the CAR-IL12+:GFP+ ratio was 18.5, the transactivation was 6417 and the bystander effect was −226, (d) the CAR-IL12+:GFP+ ratio was 9.2, the transactivation was 5568 and the bystander effect was −86, (e) the CAR-IL12+:GFP+ ratio was 4.6, the transactivation was 4374 and the bystander effect was −518, and (f) the CAR-IL12+:GFP+ ratio was 2.3, the transactivation was 2839 and the bystander effect was −1093. For OT-001895, when (a) the CAR-IL12+:GFP+ ratio was 34.1, the transactivation was 7699 and the bystander effect was −3724, (b) the CAR-IL12+:GFP+ ratio was 17.1, the transactivation was 7718 and the bystander effect was −2996, (c) the CAR-IL12+:GFP+ ratio was 8.5, the transactivation was 8200 and the bystander effect was −1178, (d) the CAR-IL12+:GFP+ ratio was 4.3, the transactivation was 7172 and the bystander effect was −277, (e) the CAR-IL12+:GFP+ ratio was 2.1, the transactivation was 6095 and the bystander effect was −238, and (f) the CAR-IL12+:GFP+ ratio was 1.1, the transactivation was 4498 and the bystander effect was −136. For OT-002011, when (a) the CAR-IL12+:GFP+ ratio was 75.8, the transactivation was 8086 and the bystander effect was −3531, (b) the CAR-IL12+:GFP+ ratio was 37.9, the transactivation was 8031 and the bystander effect was −2884, (c) the CAR-IL12+:GFP+ ratio was 18.9, the transactivation was 8324 and the bystander effect was −1376, (d) the CAR-IL12+:GFP+ ratio was 9.5, the transactivation was 7765 and the bystander effect was −1133, (e) the CAR-IL12+:GFP+ ratio was 4.7, the transactivation was 6682 and the bystander effect was −566, and (f) the CAR-IL12+:GFP+ ratio was 2.4, the transactivation was 5190 and the bystander effect was −642. […]

[2] = system: phospho-STAT4 in GFP+ T cells; test: Bystander effect: phospho-STAT4 in GFP+ T cells incubated 1 hour with co-culture supernatants, flow cytometry (Example 6; Table 20); format: cell-based, human
Method: as §1, §2

[3] = system: Nalm-6 cells; test: 48 hour cytotoxicity assay, T cells co-cultured with Nalm-6 NucRed cells, Incucyte (Example 7; Table 21); format: cell-based
Method: For cytotoxicity assays, T cells were thawed and co-cultured with Nalm-6 cells (stably expressing NucRed®) at different T cells to Nalm-6 cell culture ratios. Target cell viability was determined by measuring cellular fluorescence over time using an Incucyte assay and the results are shown in Table 21.

[4] = system: CAR+ T cells and GFP+ T cells; test: CAR-T and GFP+ T cell expansion in peripheral blood by flow cytometry (Example 10; Table 37); format: in vivo, NSG mice; parameters: unit not given here; settings: day 14 post T cell transfer, 1 million CAR+ T cells
Method: Next, holding total CAR+ T cell dose constant at 1 million cells per animal, transduced T cells were intravenously infused into mice on day 7. Tumors were monitored in mice using BLI and the mean of the Total Flux (photons/second) was calculated for each group as an indicator of tumor burden (Table 34). In order to track the trans effect of IL12 expressing CART cells on that lack expression of IL12, 10 million GFP+ T cells (negative for IL12) were co-infused with the IL12-expressing CAR+ T cells, and peripheral blood draws taken over time to evaluate the effect of IL12 on phenotypic changes in GFP+ T cells by flow cytometry analysis.
Thus, anti-tumor efficacy (Table 34) appears to correlate with CAR-T cell expansion.

B1: OT-001356: CD19 CAR; stop; IRES; secreted IL12 (p40 23-328; (G4S)3; p35 57-253); nucleic acid SEQ ID NO: 482 (protein)
chain: IWELKKDVYVVELDWYPDAPGEMVVLTCDTPEEDGITWTLDQSSEVLGSGKTLTIQVKEFGDAGQYTCHKGGEVLSHSLLLLHKKEDGIWSTDILKDQKEPKNKTFLRCEAKNYSGRFTCWWLTTISTDLTFSVKSSRGSSDPQGVTCGAATLSAERVRGDNKEYEYSVECQEDSACPAAEESLPIEVMVDAVHKLKYENYTSSFFIRDIIKPDPPKNLQLKPLKNSRQVEVSWEYPDTWSTPHSYFSLTFCVQVQGKSKREKKDRVFTDKTSATVICRKNASISVRAQDRYYSSSWSEWASVPCSGGGGSGGGGSGGGGSRNLPVATPDPGMFPCLHHSQNLLRAVSNMLQKARQTLEFYPCTSEEIDHEDITKDKTSTVEACLPLELTKNESCLNSRETSFITNGSCLASRKTSFMMALCLSSIYEDLKMYQVEFKTMNAKLLMDPKRQIFLDQNMLAVIDELMQALNFNSETVPQKSSLEEPDFYKTKIKLCILLHAFRIRAVTIDRVMSYLNASGS
With B1 the “transactivation (pSTAT4 geometric MFI on GFP+ cells in co-culture)” value ([1]; CAR-IL12+:GFP+ ratio 2.3) was 2839, the “transactivation (pSTAT4 geometric MFI on GFP+ cells in co-culture)” value ([1]; CAR-IL12+:GFP+ ratio 4.6) was 4374 and the “transactivation (pSTAT4 geometric MFI on GFP+ cells in co-culture)” value ([1]; CAR-IL12+:GFP+ ratio 9.2) was 5568. The “transactivation (pSTAT4 geometric MFI on GFP+ cells in co-culture)” value ([1]; CAR-IL12+:GFP+ ratio 18.5) was 6417, the “transactivation (pSTAT4 geometric MFI on GFP+ cells in co-culture)” value ([1]; CAR-IL12+:GFP+ ratio 37) was 6935 and the “transactivation (pSTAT4 geometric MFI on GFP+ cells in co-culture)” value ([1]; CAR-IL12+:GFP+ ratio 73.9) was 6452. The Transactivation ([1]; CAR-IL12+:GFP+ ratio of 64, pSTAT4 geometric MFI on GFP+ cells, 1 hour co-culture) was 6452, the “bystander effect (pSTAT4 geometric MFI on GFP+ T cells in 1 hour supernatants)” value (shortened to “bystander effect”) ([2]; CAR-IL12+:GFP+ ratio 2.3) was −1093 and the “bystander effect” value ([2]; CAR-IL12+:GFP+ ratio 4.6) was −518. For the same molecule, the “bystander effect” value ([2]; CAR-IL12+:GFP+ ratio 9.2) was −86, the “bystander effect” value ([2]; CAR-IL12+:GFP+ ratio 18.5) was −226 and the “bystander effect” value ([2]; CAR-IL12+:GFP+ ratio 37) was −1404. The “bystander effect” value ([2]; CAR-IL12+:GFP+ ratio 73.9) was −2617, the “Average Total Nalm6-NucRed Area after 48 hour at E:T ratio of 3:1” value ([3]; E:T 3:1, 48 hour) was 33,079 and the “Average Total Nalm6-NucRed Area after 48 hour at E:T ratio of 10:1” value ([3]; E:T 10:1, 48 hour) was 32,236. For the same molecule, the “Cis Effect: Numbers of CAR+ Cells on Day 14” value [4] was 1777 and the “Trans Effect: Numbers of GFP+ Cells on Day 14” value [4] was 99.
